The values that follow come from patent US20120244162A1 (MICROMET, published 2012).

In assay [1] the target is T1, macaque CD3 on the macaque T cell line 4119LnPx (macaque, UniProt Q95LI5 22-198).
T1 construct: whole, on cells; Native CD3 complex on 4119LnPx cells; also called cynomolgus CD3
In words: FACS, 4119LnPx.

Assay [2] addresses T2, human CD3 epsilon alanine mutant, position 3 (G3A) (human, UniProt P07766 22-207).
T2 construct: On transfected EL4 cells
In words: alanine scanning, FACS on EL4 transfectants.

The target of assay [3] is T3, human CD3 epsilon alanine mutant, position 2 (D2A) (human, UniProt P07766 22-207).
T3 construct: On transfected EL4 cells
T3 sequence (P07766 other isoform, or with tags, fused parts or gaps limits assumed, stated change not applied): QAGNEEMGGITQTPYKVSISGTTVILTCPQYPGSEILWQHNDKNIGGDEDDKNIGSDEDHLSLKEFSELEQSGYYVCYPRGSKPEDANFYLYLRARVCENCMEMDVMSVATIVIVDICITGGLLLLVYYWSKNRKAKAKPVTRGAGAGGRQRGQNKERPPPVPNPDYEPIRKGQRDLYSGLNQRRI
In words: alanine scanning, FACS on EL4 transfectants.

The target of assay [4] is T4, human CD3 epsilon alanine mutant, position 1 (Q1A) (human, UniProt P07766 23-207).
T4 construct: On transfected EL4 cells; positions count on the mature chain
T4 sequence (P07766 other isoform, or with tags, fused parts or gaps, stated change not applied): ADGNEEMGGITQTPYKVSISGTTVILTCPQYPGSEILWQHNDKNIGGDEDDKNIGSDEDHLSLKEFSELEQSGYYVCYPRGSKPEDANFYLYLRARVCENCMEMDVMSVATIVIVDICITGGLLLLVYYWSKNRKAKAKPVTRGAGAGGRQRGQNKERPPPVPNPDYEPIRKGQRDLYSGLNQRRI
In words: alanine scanning, FACS on EL4 transfectants.

Assay [5] concerns the target T5, human CD3 epsilon alanine mutant, position 5 (E5A) (human, UniProt P07766 22-207).
T5 construct: On transfected EL4 cells
In words: alanine scanning, FACS on EL4 transfectants.

Assay [6] deals with T6, 1-27 CD3-Fc (N-terminal amino acids 1-27 of the mature human CD3 epsilon chain fused to the hinge and Fc … (human)).
T6 construct: also called 1-27 CD3ε-Fc; human CD3 epsilon (aa 1-27)-Fc fusion protein
As to the kind of experiment: ELISA, periplasmic scFv on captured 1-27 CD3-Fc. On the technique in general: An ELISA detects its analyte on a solid surface through an enzyme-linked reagent.

The next assay deals with T7, marmoset 1-27 CD3ε-EpCAM (Callithrix jacchus CD3 epsilon 1-27, …).
T7 construct: On transiently transfected 293-HEK cells; also called 1-27 CD3-EpCAM comprising the marmoset 27 mer
T7 chain: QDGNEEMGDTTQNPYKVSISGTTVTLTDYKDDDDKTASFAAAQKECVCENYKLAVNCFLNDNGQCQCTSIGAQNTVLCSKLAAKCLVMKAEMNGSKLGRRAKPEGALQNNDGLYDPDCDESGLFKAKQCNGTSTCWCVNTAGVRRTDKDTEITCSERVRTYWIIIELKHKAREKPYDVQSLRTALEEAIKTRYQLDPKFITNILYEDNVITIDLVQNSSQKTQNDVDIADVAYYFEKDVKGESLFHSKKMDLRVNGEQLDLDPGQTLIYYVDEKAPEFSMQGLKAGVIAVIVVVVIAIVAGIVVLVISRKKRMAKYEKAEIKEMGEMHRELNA
In words: FACS on transfected 293-HEK cells, periplasmic scFv.

For the next assay, the target named is T8, human 1-27 CD3ε-EpCAM (human CD3 epsilon 1-27, cynomolgus EpCAM).
T8 construct: Transmembrane fusion: CD3 epsilon 1-27, Flag tag, mature cynomolgus EpCAM; on transiently transfected 293-HEK cells; also called 1-27 CD3-EpCAM comprising the human 27 mer
T8 chain: T7 chain with D9G, T10I, N13T, T25I
The description is as above.

The target in assay [7] is T9, squirrel monkey 1-27 CD3ε-EpCAM (Saimiri sciureus CD3 epsilon 1-27, …).
T9 construct: also called 1-27 CD3-EpCAM comprising the squirrel monkey 27 mer
T9 chain: T7 chain with M7I
Described as above.

The target in a further assay is T10, tamarin 1-27 CD3ε-EpCAM (Saguinus oedipus CD3 epsilon 1-27, …).
T10 construct: On transiently transfected 293-HEK cells; also called 1-27 CD3-EpCAM comprising the tamarin 27 mer
T10 chain: T7 chain
The description is as above.

In a further assay the target is T11, swine 1-27 CD3ε-EpCAM (Sus scrofa CD3 epsilon 1-27, cynomolgus …).
T11 construct: Negative control construct on 293-HEK cells; also called 1-27 CD3-EpCAM comprising the swine 27 mer
T11 chain: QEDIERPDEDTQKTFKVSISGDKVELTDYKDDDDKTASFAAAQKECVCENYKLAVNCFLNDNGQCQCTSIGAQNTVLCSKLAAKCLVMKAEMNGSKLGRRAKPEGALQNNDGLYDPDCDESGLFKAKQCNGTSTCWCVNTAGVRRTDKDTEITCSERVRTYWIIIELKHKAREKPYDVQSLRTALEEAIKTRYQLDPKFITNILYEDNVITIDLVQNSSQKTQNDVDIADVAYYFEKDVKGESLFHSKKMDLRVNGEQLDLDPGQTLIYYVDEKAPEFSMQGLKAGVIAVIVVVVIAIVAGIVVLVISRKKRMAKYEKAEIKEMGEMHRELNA
As to the kind of experiment: FACS on transfected 293-HEK cells.

Assay [8] addresses T6, 1-27 CD3-Fc (N-terminal amino acids …). In words: SPR (Biacore 2000), 1-27 CD3-Fc coupled to CM5 chip, analyte 5 µg/ml.

Positions count from the first letter of the chain named. Names may count otherwise.

T2 sequence (P07766 other isoform, or with tags, fused parts or gaps limits assumed, stated change not applied): as the sequence (P07766 other isoform, or with tags, fused parts or gaps, stated change not applied) above, with A1Q, G3A counted along it
T5 sequence (P07766 other isoform, or with tags, fused parts or gaps limits assumed, stated change not applied): as the sequence (P07766 other isoform, or with tags, fused parts or gaps, stated change not applied) above, with A1Q, E5A counted along it
T1 sequence (Q95LI5 22-198): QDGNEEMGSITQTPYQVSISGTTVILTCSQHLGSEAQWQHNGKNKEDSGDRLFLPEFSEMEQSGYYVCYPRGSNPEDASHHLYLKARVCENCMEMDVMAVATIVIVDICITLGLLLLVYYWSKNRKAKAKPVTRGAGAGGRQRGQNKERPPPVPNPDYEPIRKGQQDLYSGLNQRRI

B1: MCSP-G4 HLP × E2M HLP (bispecific antibody)
chain: QVQLVQSGAEVKRPGASMKVSCKASGYTFTNYYIHWVRQAPGQGLEWMGWINPNSGATNYAQKFQGRVTMTRDTSTSTVYMELSSLRSEDTAVYYCAKSWVSWFASWGQGTLVTVSSGGGGSGGGGSGGGGSELVMTQSPDSLAVSLGERATINCKSSQSVLNSSNNRNYLAWYQQKPGQPPKLLIYWASTRESGVPDRFSGSGSGTDFTLTISGLQAEDVAVYYCQQHYSTPFTFGPGTKVDIKSGGGGSEVQLLESGGGLVQPGGSLKLSCAASGFTFNGYAMNWVRQAPGKGLEWVARIRSKYNNYATYYADSVKERFTISRDDSKNTAYLQMNNLKTEDTAVYYCVRHRNFGNSYLSWFAYWGQGTLVTVSSGGGGSGGGGSGGGGSELVVTQEPSLTVSPGGTVTLTCRSSTGAVTSGYYPNWVQQKPGQAPRGLIGATDMRPSGTPARFSGSLLGGKAALTLSGVQPEDEAEYYCALWYSNRWVFGGGTKLTVLHHHHHH
On to B1, for which the binding result in assay [1] is “binds”.

B2: A2J HLP chimeric IgG antibody (murine IgG1 and human lambda constant regions) (antibody, V domains shown)
VH: EVQLLESGGGLVQPGGSLKLSCAASGFTFNVYAMNWVRQAPGKGLEWVARIRSKYNNYATYYADSVKKRFTISRDDSKNTAYLQMNNLKTEDTAVYYCVRHGNFGNSYLSWWAYWGQGTLVTVSS
VL: ELVVTQEPSLTVSPGGTVTLTCRSSTGAVTSGYYPNWVQQKPGQAPRGLIGATDMRPSGTPARFSGSLLGGKAALTLSGVQPEDEAEYYCALWYSNRWVFGGGTKLTVLG
notes: also called IgG antibody A2J HLP
Consider B2, for which the binding result in assay [2], in assay [3], in assay [4] and in [5] was “no binding” in each case.

B3: E2M HLP chimeric IgG antibody (murine IgG1 and human lambda constant regions) (antibody, V domains shown)
VH: B2 VH with V31G, K68E, G102R, W112F
VL: B2 VL
notes: also called IgG antibody E2M HLP
Consider B3, for which the binding result in assay [2], in assay [3], in [4] and in assay [5] was “no binding” each time.

B4: A2J HLP single-chain antibody (scFv)
scFv: EVQLLESGGGLVQPGGSLKLSCAASGFTFNVYAMNWVRQAPGKGLEWVARIRSKYNNYATYYADSVKKRFTISRDDSKNTAYLQMNNLKTEDTAVYYCVRHGNFGNSYLSWWAYWGQGTLVTVSSGGGGSGGGGSGGGGSELVVTQEPSLTVSPGGTVTLTCRSSTGAVTSGYYPNWVQQKPGQAPRGLIGATDMRPSGTPARFSGSLLGGKAALTLSGVQPEDEAEYYCALWYSNRWVFGGGTKLTVLTGDYKDDDDKHHHHHH
notes: Crude periplasmic preparation; also called VH-VL-P of A2J
Consider B4, for which the binding result in [6] is “binds”.

B5: E2M HLP single-chain antibody (scFv)
scFv: B4 scFv with V31G, K68E, G102R, W112F
notes: Crude periplasmic preparation; also called VH-VL-P of E2M
Regarding B5, the binding result with marmoset 1-27 CD3ε-EpCAM is “binds”; in the assay with human 1-27 CD3ε-EpCAM it was “binds”; in [7] it was “binds”; in the assay with tamarin 1-27 CD3ε-EpCAM, “binds”; in the assay with swine 1-27 CD3ε-EpCAM it was “no binding”; in assay [6] it was “binds”.

B6: EGFR-21-63 LH × A2J HLP (bispecific antibody)
chain: DIVLTQSPASLPVSLGQRATISCRASQSVSSSTYSYIHWYQQKPGQPPKLLITYASNLESGVPARFSGSGSGTDFTLDIHPVEEDDSSTYYCQHSWEIPFTFGSGTKLEIKGGGGSGGGGSGGGGSQVQLQQSGPDLVKPGASVKMSCKASGHTFTDCVIIWVKQRAGQGLEWIGQIYPGTGRSYYNEIFKGKATLTADKSSNTVHIQLSSLTSEDSAVYFCALSTLIHGTWFSYWGQGTLVTVSSGGGGSEVQLLESGGGLVQPGGSLKLSCAASGFTFNVYAMNWVRQAPGKGLEWVARIRSKYNNYATYYADSVKKRFTISRDDSKNTAYLQMNNLKTEDTAVYYCVRHGNFGNSYLSWWAYWGQGTLVTVSSGGGGSGGGGSGGGGSELVVTQEPSLTVSPGGTVTLTCRSSTGAVTSGYYPNWVQQKPGQAPRGLIGATDMRPSGTPARFSGSLLGGKAALTLSGVQPEDEAEYYCALWYSNRWVFGGGTKLTVLHHHHHH
notes: Bispecific single chain antibody; also called EGFR LH × A2J HLP
As to B6, the equilibrium dissociation constant (Kd) (as a rule, the equilibrium constant for the complex coming apart) in [8] was 249 nM.

B7: EGFR-21-63 LH × E2M HLP (bispecific antibody)
chain: B6 chain with V282G, K319E, G353R, W363F
notes: Bispecific single chain antibody; also called EGFR LH × E2M HLP
As for B7, the Kd in [8] was found to be 2460 nM.
